# T1: Frizzled 6 (expressed in transfected 293T cells)
# T1 sequence (O60353 whole entry, species assumed, looked up): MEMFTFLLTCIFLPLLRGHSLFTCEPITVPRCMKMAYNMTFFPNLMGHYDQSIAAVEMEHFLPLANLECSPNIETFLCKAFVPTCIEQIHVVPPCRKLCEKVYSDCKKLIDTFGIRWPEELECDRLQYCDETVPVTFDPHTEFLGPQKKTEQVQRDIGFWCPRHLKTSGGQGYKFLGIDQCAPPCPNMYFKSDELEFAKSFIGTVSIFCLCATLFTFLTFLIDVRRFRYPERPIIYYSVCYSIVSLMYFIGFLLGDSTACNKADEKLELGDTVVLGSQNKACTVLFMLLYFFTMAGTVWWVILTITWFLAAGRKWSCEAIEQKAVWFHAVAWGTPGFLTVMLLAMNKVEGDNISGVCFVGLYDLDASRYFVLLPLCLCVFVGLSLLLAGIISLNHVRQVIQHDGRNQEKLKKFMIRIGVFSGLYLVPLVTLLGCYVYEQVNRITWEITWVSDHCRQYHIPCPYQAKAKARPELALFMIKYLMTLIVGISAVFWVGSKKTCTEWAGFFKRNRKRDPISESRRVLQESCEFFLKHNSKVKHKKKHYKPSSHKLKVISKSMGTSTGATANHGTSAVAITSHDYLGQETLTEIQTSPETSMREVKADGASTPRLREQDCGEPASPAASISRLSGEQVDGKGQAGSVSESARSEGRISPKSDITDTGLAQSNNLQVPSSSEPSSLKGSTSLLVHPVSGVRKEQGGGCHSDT
# B1: wild type Wnt2 (expressed from transfected Wnt2 cDNA) (ligand)
# chain: SWWYMRATGGSSRVMCDNVPGLVSSQRQLCHRHPDVMRAISQGVAEWTAECQHQFRQHRWNCNTLDRDHSLFGRVLLRSSRESAFVYAISSAGVVFAITRACSQGEVKSCSCDPKKMGSAKDSKGIFDWGGCSDNIDYGIKFARAFVDAKERKGKDARALMNLHNNRAGRKAVKRFLKQECKCHGVSGSCTLRTCWLAMADFRKTGDYLWRKYNGAIQVVMNQDGTGFTVANERFKKPTKNDLVYFENSPDYCIRDREAGSLGTAGRVCNLTSRGMDSCEVMCCGRGYDTSHVTRMTKCGCKFHWCCAVRCQDCLEALDVHTCKAPKNADWTTAT
# Columns and labels:
# Experiment in all cases: cell-based or functional assay
# [1] = target: T1, Frizzled 6 (expressed in transfected …)
# [2] = target: Frizzled 8 receptor (expressed in transfected cells) (human, UniProt Q9H461 28-694)
# Sequence of Frizzled 8 receptor (expressed in transfected cells) (Q9H461 28-694 limits assumed): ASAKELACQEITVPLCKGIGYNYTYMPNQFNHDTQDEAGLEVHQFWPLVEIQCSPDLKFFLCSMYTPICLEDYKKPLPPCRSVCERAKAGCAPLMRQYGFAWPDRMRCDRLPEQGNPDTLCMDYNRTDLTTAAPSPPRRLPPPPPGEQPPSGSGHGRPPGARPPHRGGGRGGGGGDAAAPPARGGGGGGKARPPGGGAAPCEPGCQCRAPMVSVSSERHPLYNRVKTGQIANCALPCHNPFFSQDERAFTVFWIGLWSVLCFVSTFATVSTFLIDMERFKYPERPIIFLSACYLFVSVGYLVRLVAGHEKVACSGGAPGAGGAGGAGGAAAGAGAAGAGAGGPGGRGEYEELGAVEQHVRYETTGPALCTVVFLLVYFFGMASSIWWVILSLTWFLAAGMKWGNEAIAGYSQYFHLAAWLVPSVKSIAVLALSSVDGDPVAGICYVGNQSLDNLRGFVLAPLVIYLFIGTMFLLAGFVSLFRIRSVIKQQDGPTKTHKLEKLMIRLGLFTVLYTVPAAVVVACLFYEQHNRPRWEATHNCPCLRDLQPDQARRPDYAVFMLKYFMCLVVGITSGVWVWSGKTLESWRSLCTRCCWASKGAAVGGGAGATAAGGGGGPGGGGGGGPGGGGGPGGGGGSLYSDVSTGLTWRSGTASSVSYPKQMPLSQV
# [3] = target: Frizzled 9 (expressed in transfected 293T cells)
# [4] = target: Frizzled 7 (expressed in transfected 293T cells)
binder,measurement,setting,value
B1,"luciferase activity (TOPflash TCF reporter, 293T cells co-expressing Wnt2 and the Fzd receptor)",[1],10 fold
same,TCF activity (TOPflash reporter) in Human Embryonic Kidney 293 cells and A549 cells compared to vector control,[2],5 fold
same,"luciferase activity (TOPflash TCF reporter, 293T cells co-expressing Wnt2 and the Fzd receptor) compared to vector alone",[2],25 fold
same,"luciferase activity (TOPflash TCF reporter, 293T cells co-expressing Wnt2 and the Fzd receptor) over vector control alone",[3],16 fold
same,"TCF-activity (TOPflash reporter, 293T cells) compared to vector control",[4],4 fold
same,"TCF-activity (TOPflash reporter, 293T cells), increase due to the presence of Wnt2",[4],~2 fold
